Data taken from patent publication US20200147215A1, “DRUG CONJUGATES WITH PHOTOCLEAVABLE SOLUBILITY MODULATORS” (priority 2017, published 2020).
Where two headings read alike, the source gives them in different places.

Assays:
[1] = Isoelectric point (IEF gel); assay type: physicochemical; details: FIG. 33
[2] = Photolysis of G2PEA-insulin dissolved in DMSO, analyzed by gel; assay type: physicochemical; details: over the irradiation time period, FIG. 35
Text: The lower band is insulin.

[3] = Solubility of non-polar-tag insulin conjugates vs insulin (shaken with PBS pH 7.2, supernatant analyzed)
Method: (§1) Diazo was allowed to react for 24 hours. Reaction progress may be monitored on HPLC with a C18 column.
It was hypothesized solubility would be further lowered by the Val-Val-Val peptide being allowed to pack more efficiently than in the Val-Pro-Ile peptide.

[4] = stated in description, no experiment; cited from earlier work
[5] = Quantitative solubility of G2PEA-insulin and insulin in buffer at pH 7.2 and pH 5.4
[6] = Photolysis release of insulin from conjugate vs irradiation time; assay type: physicochemical
Method: as §1

Row | Substance | isoelectric point [1] | conversion to insulin upon irradiation [2] | Solubility mM ([3]; Table 3) [mM] | Solubility mg/ml ([3]; Table 3) [mg/mL] | Solubility mM ([3]; Table 5) [mM] | Solubility mg/ml ([3]; Table 5) [mg/mL] | isoelectric point [4] | Solubility ([5]; Table 7, pH 7.2 buffer) [µM] | Solubility ([5]; Table 8, pH 5.4) [µM] | photolysis release rate constant k ([6]; FIG. 7, insulin released into solution v. irradiation time) [min-] | photolysis release rate constant k ([6]; fit B=A0(1−exp(−kt)), FIG. 19) [min⁻¹]
1 | G2PEA-insulin drug conjugate: drug conjugate of insulin and glutamic acid condensed with two 1-(2-Aminoethyl)pyrrolidine moieties (G2PEA), photocleavable link | ~7 | all of the G2PEA insulin is consumed, and insulin is released |  |  |  |  |  |  |  |  | 
2 | insulin [reference compound] |  |  | 0.708 | 4.11 | 0.708 | 4.11 | ~5.4 | 1053.3 ± 158.1 | 17.1 ± 2.1 |  | 
3 | CD-insulin: drug conjugate of insulin and a cyclododecyl amine non-polar moiety joined by a DMNPE-type photocleavable group |  |  | 0.009 | 0.06 | 0.009 | 0.06 |  |  |  | 0.154 | 0.154
